Test: yeast display, Sf9 membrane polyspecificity reagent, FACS + sequencing; frameworks hold sequencing errors
In short: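 Polyreactivity labels are assigned by the sorting gate from which each nanobody was recovered. The gates were low and high (top ~1%), set on anti-HA fluorescence for expression and streptavidin fluorescence for reagent binding. Before sorting, galactose-induced (36–48 hours) yeast display cells were stained for 1 hour at 4 °C with 10% biotinylated, detergent-solubilized Sf9 membrane reagent.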

| Sequence | polyreactivity (PSR sort gate) |
| --- | --- |
| QVQLVESGGGLFQAGGSLRLSCAASGTTFVRYAMGCYRQAPGKDRQLVAAISSSGATTYYADSVKGRFTISRDNAKNTVYLQMNSLKPEDTEVYYCARLYVKRHGYWGQGSQVTVSS | high polyreactivity |
| QVQLVESGGGLFQAGGSLRLSCAATGSIFDYYAMGWYRQAPGKERELDGTITSGVSTYYADSVKGRFTISRDNAKNTVYLQMISLKPEDTAVYYCARDYAKSQDLYKYDYWGQGTQVTGSS | low polyreactivity |
| QVQLVESGGGLFQAGGSLRLSCAPSGSIFTTYAMGWYRQAPGKERELVAAITDTCSTNYADSVKGRFTISRDNAKNTVYLQMNSLKPEDTAVYYCAVDLGYEYDWGQGTEVTVSS | low polyreactivity |
| QVQLVESGGGLFQAGGSLRLSCSASGNTFVPYDMGWYRQAPGKERELVAGITSGGSTYYADSVKGRFTISRDNAKNTVYLQMNSLKPEDTAVYYCAADYYLWVYWYDYWGEGTQVTVSS | high polyreactivity |
| QVQLVESGGGLFQAGGSLRLSSAASGSTFSYYVMGWYRQAPGKERELVAAIDYSGDSTYYADSVKGRFTLSRDNAKNTVYLQMNSLKPEDTAVYYCAADDYPWNRYEYWGQGTQVTVSS | low polyreactivity |
| QVQLVESGGGLFQAGGSLRLTCAASGSTFPYHTMGWYRQATGKQRDFVAAITGDGGTTYYADSVKGRFTISRDNAKNTVYLQMNSLKPEDTAVYYCNALYAPYGWFYCLYDYWGPGTQVTVSS | low polyreactivity |
| QVQLVESGGGLFQAGGSLRVSCAASGSTFYLYAMGWSRQAPGKEREWVAAISRRGGTTNYADSVKGRFTISRDNAKNSVYLQMNSLKPEDTAVYDCGADYQSVGGAEYDYWGQGTQVTVSS | high polyreactivity |
| QVQLVESGGGLFQAGGSLSLRCAASGSSFDDYTMGWYRQATGKETELLAAISSAGSTNYADSVKGRFTISRDNAKNTVYLQMNILKPEDTAVYSFAAQVHPLRYDYWGQGTQVTVSS | low polyreactivity |
| QVQLVESGGGLFQAGGSLSLSCAASGFIFSGYAMGWYRQAPGTERELVAAITWSCSNTFYADSVKGRFTISRDNAKITVFLQMNSLKPEDTAVYYCTAVSKYKRSDYYYWGQGTQVTVSS | high polyreactivity |
| QVQLVESGGGLFQAGGSLSLSCAASGSTFVKYAMGWYRQAPGKERELVATITRRGGNTYYADSVKGRFKISRVNAKNTVYIQLNSLKPEDTEVYYCNRADYRASYSGQGSYDYWGQGTQVTVSS | high polyreactivity |
| QVQLVESGGGLFQAGGSRRLICSASGFTFASNAMGWYRQAPGKERELVAAITSRGGGTYYADSVKGRFTISRDNAKNTVYLQMNSLKPEDTAVYYCNVVYGVRYFNSRGYYYWGQGTQVTVSS | high polyreactivity |
| QVQLVESGGGLFQAGRSLRLSSPASGSSFISYAMGWYRQAPGKDRELVAAITSRGGRTYYADSVKGRFTISRDNAKYTVDLQMNCLKPDDTAVYYCAASFSYRIRRYDYWGQGTQVTVSS | high polyreactivity |
| QVQLVESGGGLFQAGVSLRLSCAASGRTLQIYHMGWYRQAPGKERELVAAISSSGGSTYYADSVKGRFTISRDNAKNTVYVQMNSLKAEDTAVYYCAADPRGYGYTRKGYYWGQGTQVTVSS | high polyreactivity |
| QVQLVESGGGLFQEGGSLRLSCAASGFTFLVYAKGWYRQAPGKERQLVAAITWSGDSTYYADSVKGRFTISRDNAKNTVYLQMNSLKPEDTAFYYCAAAYRYGTLYYYWGQGTQVTVSS | low polyreactivity |
| QVQLVESGGGLFQEGGSLRLSCAASGSIFTFYAMGWYRQAPGKERELVAAITSGGSTTYADSVKGRFTISRDNAKNTVYLQMNSLKREDTAVFYCNAESWWGYYYWGQVTQVTVSS | high polyreactivity |
| QVQLVESGGGLFQEGGSLRLSCAASGSTFANYVMGWYRQAPGKEREFVAGITRSGGSTYYADSVKGRFTISRDNAKNTVYLQMNSLKPEDTAVYYCNKVRRASYYYEYDYWGQVTQVTVSS | low polyreactivity |
| QVQLVESGGGLFQEGGSLRLSCAPCGLIFFSYAMGWYRQAPGTERELVAAISRLGGRTYYADSVKGRFTISRDNAKNTVYLQMNSLKPEDTAVYYCATRVWTPIFGYEYWGQGTQVTVSS | low polyreactivity |
| QVQLVESGGGLGHAGGSLRLSCAASGGIYDYYAMGWNRQAPGKERELVTAITRSGSSTFYADSVKGRFTISRDNAKNTVYLQMKSVKPEDTAVYYCAAPYYYFAVYYGYIFEYDYWGQGTQVTVSS | low polyreactivity |
| QVQLVESGGGLGQAGGSLRLSCAASGFTFDFYAMGWYRQAPGKERELVAAISKNDGTTYYADSVKGRFTISRDNAKNTVYLQMNSLKPEDTAVYYCAAESGYPVYTYVSSGDYWGQGTQVTVSS | low polyreactivity |
| QVQLVESGGGLGQAGGSLRLSCAASGFTFRKYVMGWYRQAPGKERALVAAITSGGSTNYADSVKGRFTISRDNAKNTVYLQMNSVIPEDTAVYYCATVPGARVHYPTGDYWGQGTQVTVSS | high polyreactivity |
| QVQLVESGGGLGQAGGSLRLSCAASGIIFLDNAMGWYRQAPGKERELVAAYADSVKGRFTISRDNSNNTVYLQMNSLKPEDTAVYYCNVVLYKYSPTDSWITYDYWGQGTQVTVSS | low polyreactivity |
| QVQLVESGGGLGQAGGSLRLSCAASGITFRSYAMGWYRQAPGKERELVATISWSGGITYYADSVKGRFTISRDNAKNTVYLQMNSLKPEDTAVYYCAKASQSWGPDDYYYWGQGTQVTVSS | low polyreactivity |

| Sequence | polyreactivity (PSR sort gate) |
| --- | --- |
| QVQLVESGGGLGQAGGSLRLSCAASGITFVVYAMGWYRQAPGKERELVATISSGGSTNYADSVKGRFTISRDNAKNTVYLQMNSLKPEDTAVYYCNRVSVYRSSHLLWGGYWGQGTQVTVSS | low polyreactivity |
| QVQLVESGGGLGQAGGSLRLSCAASGRIFFGNARGWYRQAPGKEREFVAAISLTGVTTSYADSVKGRFTISRDNAKNTVYLQMNSLKPEDTAVYYCARDYSYYTHAYDYWGQGTQVTVSS | low polyreactivity |
| QVQLVESGGGLGQAGGSLRLSCAASGRIFYRNAMGWYRQAPGKERELVAAISSSGSTNYADSVKGRFTISRDNAKNTVYLQMNSLKPEDTAVDYCNDVVRWGYGYDYWGQGTQVTVSS | high polyreactivity |
| QVQLVESGGGLGQAGGSLRLSCAASGRIVSNAMGWYRQAPGKERELVAAISRRGGSTYYADSVKGRFTISRENAKNTVYLQMNSLIPEDTAVYSCASRPFFTYRWYDYWGQGTQVTVSS | high polyreactivity |
| QVQLVESGGGLGQAGGSLRLSCAASGRTFYYNAMGWYRQAPGKERELVAAITRSGGRTYYADSVKGRFTISRDTAKNTVYLQMNSLKPEDTAVYYCAARWSSYYSSMDYWGQGSQVTVSS | high polyreactivity |
| QVQLVESGGGLGQAGGSLRLSCAASGRTLGAYAMGWYRQAPGKERELVAAISGSGGSTYYADSVKGRFTISRDNAKNTVYLQMNSLKPEDTAVYYCAAVLSRYGQSISMYYWGQGTQVTVSS | high polyreactivity |
| QVQLVESGGGLGQAGGSLRLSCAASGSIFGYNVMGWYRQAPGKERELVAGITSGGSTNYADSVKGRFTISRDNAKNTVSLQMNSLKPEDTAVYYCNAEGVFGDGRSGFYWYDYWGEGTQVTVSS | low polyreactivity |
| QVQLVESGGGLGQAGGSLRLSCAASGSIFSFYAMGWYRQAPGKERELVAVINTDGDNTYYADSVKGRFTISRDNAKNTVYLQMNSLKAEDSAVYYCAASVSSYSYTRGGYWGQGTQVTVSS | high polyreactivity |
| QVQLVESGGGLGQAGGSLRLSCAASGSIFYYYAMGWYRQAPGKERELVAGINSGDSTYYADSVKGRFTISRDNAKNTVYLQMNRLKPEDTAVYYCAASADGWYEYWGQGTQVTVSS | low polyreactivity |
| QVQLVESGGGLGQAGGSLRLSCAASGSLITQNALGWYRLAPGKEWELVADISRGSTYSADSVKGRFTISRDNAKNTVYLQLTSLKPEDTALYYSAADDIAHPSFVSTVDVGMDYWGQGPQVTVSS | low polyreactivity |
| QVQLVESGGGLGQAGGSLRSSCAASGSIICYYAMGWYRQAPGKEWELVATITSGGSTSYADSVKGRFTISRDNAKNTVHLQMNSLKPEDTAVYYCAARNVTKSTYNYWGQGTQVTVSS | low polyreactivity |
| QVQLVESGGGLGQARGSLRLSRAASGSPFEYNAMGWYRPAPGKERELVASSTNYADSVKGRFTISRDNAKNTVYLQMNSLKPEVTAVNSCAREPGVNRNHDYWGQGSQVTVSS | low polyreactivity |
| QVQLVESGGGLGQSGGSLRLSCAATGSTYKYNAMGWNRTAPGKERELVPAISRGGRTNYADSVKGRFTISRDNAKNTVYFQMNILKPEDTAVYYCAKDVAGLFHVGSLYYYWGQGTQVNVSS | low polyreactivity |
| QVQLVESGGGLIQAGGSLRLSCAASGSTFANNAMGWYRQAPGKERELVASITRSGSTYYADSVKGRFTISRDNAKNTVYLQMNSLKPEDTAVYYCAADSRRYGVRFDYWGQGTQVTVSS | low polyreactivity |
| QVQLVESGGGLLLAGGSLRLSCAASGYTFVYNAMGWYRHAPGKEREFVAAITWSGTSTRYADSVKGRFTISRDNAKNNVYLQMKSLKPEDTAVYYCAARRRSAQSGSYNHWGQGTQVTVSS | high polyreactivity |
| QVQLVESGGGLLQAGGSHRLSCAASGRIFPAYAMGWYRQAPGKERELVASNRRGGITYADSVKGRFTISRDNAKNTVYLQMNSLKPEDTAVYYCNADYRGWGYHMDYWGQGTQVTVSS | low polyreactivity |
| QVQLVESGGGLLQAGGSLLLSCAASGSNFAYYAMGWYRQAPGKERELVAAITRGAGRTFYADSVKGRFTISRDNAKNTVYLQMNSLKQEDTAVYYCAADVSGSKYDYWGQGTQVTVSS | high polyreactivity |
| QVQLVESGGGLLQAGGSLRISCAASGFPYVMGWYRQAPGKARELVATITSGDSTNYADSVKGRFTISRDNAKNTVYLQMNSLKPEDTAVYYCNARYWGRYYKRVRYDYWGQGTKVTVSS | high polyreactivity |
| QVQLVESGGGLLQAGGSLRLISAASGGIFIRYAMGWYRQAPGKERALVAAITQSGAGTNYADSVKGRFTISRDNAKNTVYLQKYSLKPEDTAVYYCAKEALLPIRRLTHARTRYNFWGQGTQVTVSS | low polyreactivity |
| QVQLVESGGGLLQAGGSLRLSCAASGFIFADYMGWNRQAPGKERELVASISSTGSSTYADSVKGRFTISRDNPKNTVYLQMNSLKPEDTAVSYCAATGVWYSWYEYASEYDYWGLGTQVTVSS | high polyreactivity |
| QVQLVESGGGLLQAGGSLRLSCAASGFIFIQYAMGWYRQAPGKEREFVAAITGRGSSTYYADSVKGRFTISRDNAKNTVYLQMNSLKPEDTAVFYCAADRDSYIFYYYWSYDYWGQGTQVTVSA | high polyreactivity |
